Laboratory results taken from US20220009991A1.

Target: IGF-1 receptor (UniProt P08069)
Assay: cell-based or functional assay

Chain of UniProt P08069 (P08069 31-1367): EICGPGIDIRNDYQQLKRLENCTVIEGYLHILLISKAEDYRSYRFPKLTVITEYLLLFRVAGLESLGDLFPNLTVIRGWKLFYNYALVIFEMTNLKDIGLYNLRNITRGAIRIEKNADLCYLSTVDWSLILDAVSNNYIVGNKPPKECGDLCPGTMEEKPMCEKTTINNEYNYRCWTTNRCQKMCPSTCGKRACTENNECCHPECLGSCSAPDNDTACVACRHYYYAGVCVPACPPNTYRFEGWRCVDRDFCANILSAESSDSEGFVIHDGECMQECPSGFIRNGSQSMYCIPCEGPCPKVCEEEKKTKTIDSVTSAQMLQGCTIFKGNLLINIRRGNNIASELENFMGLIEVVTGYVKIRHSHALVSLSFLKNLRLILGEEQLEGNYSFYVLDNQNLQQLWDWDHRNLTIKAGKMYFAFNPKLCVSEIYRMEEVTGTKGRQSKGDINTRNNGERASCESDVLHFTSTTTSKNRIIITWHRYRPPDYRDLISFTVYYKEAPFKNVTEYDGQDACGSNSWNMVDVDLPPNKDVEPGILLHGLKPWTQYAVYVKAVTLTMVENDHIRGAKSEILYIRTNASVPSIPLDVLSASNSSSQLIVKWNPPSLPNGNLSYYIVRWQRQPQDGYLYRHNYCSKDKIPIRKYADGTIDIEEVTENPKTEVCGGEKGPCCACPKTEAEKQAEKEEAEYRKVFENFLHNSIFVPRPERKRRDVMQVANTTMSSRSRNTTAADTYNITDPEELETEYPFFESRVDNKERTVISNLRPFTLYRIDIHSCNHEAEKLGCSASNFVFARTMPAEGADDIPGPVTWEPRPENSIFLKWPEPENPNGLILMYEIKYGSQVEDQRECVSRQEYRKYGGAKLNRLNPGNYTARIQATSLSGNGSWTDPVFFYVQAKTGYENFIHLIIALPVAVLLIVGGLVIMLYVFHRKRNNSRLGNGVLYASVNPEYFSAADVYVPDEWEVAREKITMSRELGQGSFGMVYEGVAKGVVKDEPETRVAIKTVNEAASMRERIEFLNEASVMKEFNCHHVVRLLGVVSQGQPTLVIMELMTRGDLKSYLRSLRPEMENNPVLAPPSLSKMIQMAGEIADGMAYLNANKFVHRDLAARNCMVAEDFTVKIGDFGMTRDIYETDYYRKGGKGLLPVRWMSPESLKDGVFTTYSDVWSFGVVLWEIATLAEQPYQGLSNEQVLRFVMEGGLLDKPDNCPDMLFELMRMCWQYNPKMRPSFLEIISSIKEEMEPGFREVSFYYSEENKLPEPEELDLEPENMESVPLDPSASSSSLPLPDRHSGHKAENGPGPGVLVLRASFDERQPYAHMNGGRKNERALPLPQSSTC

IGF-1 (LR3) (ligand)
pAKT EC50 (concentration needed to achieve the half maximal level of pAKT signaling), healthy iPSC-derived cardiomyocytes, pAKT ELISA: 0.73
